Data set [1] concerns the target T1, iPGAM (Slr1945), strep-iPGAM, iPGAM-WT (Synechocystis sp. PCC 6803, UniProt P74507, INS467TKKGI/DEL468-484, form not given).
T1 construct: gene gpmI; N-terminal strep-tag; expressed in E. coli Lemo21(DE3), Strep-Tactin purified; calculated 60 kDa; monomer by mass photometry
Put plainly: coupled enolase / pyruvate kinase / LDH assay, NADH decrease at […] nm. The class given is biochemical. The following applies: 50 µM MnCl2; without PirC.

The target of data set [2] is T2, iPGAM (Slr1945), strep-iPGAM, iPGAM-WT (Synechocystis sp. PCC 6803, UniProt P74507).
T2 construct: gene gpmI; N-terminal strep-tag; expressed in E. coli Lemo21(DE3), Strep-Tactin purified; calculated 60 kDa; monomer by mass photometry
The description is as above. The class given is biochemical. The settings on record: 50 µM MnCl2; without PirC.

In data set [3] the target is strep-tagged iPGAM-ΔCT (Synechocystis iPGAM with the C-terminal segment deleted) (Synechocystis sp. PCC 6803) (UniProt P74507).
For data set [4], the target named is strep-tagged iPGAM-ΔloopΔCT (Synechocystis iPGAM with the loop replaced by TKKGI and the C-terminal segment deleted) (Synechocystis sp. PCC 6803) (UniProt P74507).
The target in data set [5] is strep-tagged iPGAM (2,3-bisphosphoglycerate-independent phosphoglycerate mutase, Slr1945) of Synechocystis sp. PCC 6803, wild type (Synechocystis sp. PCC 6803) (UniProt P74507).
Data set [6] addresses strep-tagged iPGAM-Δloop (Synechocystis iPGAM with the loop replaced by TKKGI) (Synechocystis sp. PCC 6803) (UniProt P74507).
Data set [7] concerns the target strep-tagged PirC (Sll0944, PII-interacting regulator of carbon metabolism) (Synechocystis sp. PCC 6803) (UniProt P77971). As to the kind of experiment: mass photometry; Refeyn OneMP; strep-iPGAM and strep-PirC alone (iPGAM 10 nM) and mixed at an iPGAM-PirC ratio of 1:3.
The target of data set [8] is strep-tagged iPGAM (2,3-bisphosphoglycerate-independent phosphoglycerate mutase, Slr1945) of Synechocystis sp. PCC 6803, wild type (Synechocystis sp. PCC 6803) (UniProt P74507). The data set is described as above.
In data set [9] the target is His-tagged PirC (Sll0944, PII-interacting regulator of carbon metabolism) (Synechocystis sp. PCC 6803) (UniProt P77971). As to the kind of experiment: BLI; Octet K2; His-tagged PirC immobilised on a Ni2+-NTA sensor, strep-iPGAM variants as analytes in various concentrations. Background: Biolayer interferometry detects binding as a change in optical thickness at a sensor tip.
His-tagged PirC (Sll0944, PII-interacting regulator of carbon metabolism) (Synechocystis sp. PCC 6803), sequence (P77971 whole entry): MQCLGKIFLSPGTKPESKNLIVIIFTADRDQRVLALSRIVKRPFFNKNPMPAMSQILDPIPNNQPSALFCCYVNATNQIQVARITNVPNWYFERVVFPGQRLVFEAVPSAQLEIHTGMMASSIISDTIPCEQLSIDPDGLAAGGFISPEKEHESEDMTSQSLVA

Substrate in data set [10]: O=C(O)[C@H](O)COP(=O)(O)O
Put plainly: purified protein. The settings on record: 50 µM MnCl2; without PirC. The data set is classed as biochemical, Synechocystis sp. PCC 6803.

The Km is the concentration of substrate that gives half-maximal velocity. As to `O=C(O)[C@H](O)COP(=O)(O)O` [3-PGA], the Km in data set [1] amounted to 547 ± 59 µM; in [2] it was 242 ± 19 µM.

With “His-tagged PirC (Sll0944, PII-interacting regulator of carbon metabolism) (from UniProt P77971 1-164) (natural protein)”, the IC50 of PirC on iPGAM activity, coupled enzyme assay at 0.75 mM 3-PGA (50 to 1,600 nM PirC) amounted to 1070 nM in [3], 164 nM in [4], 120 nM in data set [5] and 217 nM in data set [6].

The term stoichiometry N denotes a count of units in the complex or per binding partner. Regarding “strep-tagged PirC (Sll0944, PII-interacting regulator of carbon metabolism) (from UniProt P77971 1-164) (natural protein)”, the stoichiometry N in [7] came out at 6. Further, the stoichiometry N (PirC monomers per iPGAM) in data set [8] came to 3.

In general, Kd refers to the free concentration of one partner at which half of the binding sites on the other are occupied at equilibrium, for simple one-to-one binding. “strep-tagged iPGAM-ΔCT (Synechocystis iPGAM with the C-terminal segment deleted) (from UniProt P74507 1-532) (enzyme)” displayed a Kd in data set [9] of 114 nM.

“strep-tagged iPGAM-Δloop (Synechocystis iPGAM with the loop replaced by TKKGI) (from UniProt P74507 1-532) (enzyme)” registered a Kd in data set [9] of 203 nM. This Kd is about 1.8-fold higher than that of the molecule before.

In [9], “strep-tagged iPGAM-ΔloopΔCT (Synechocystis iPGAM with the loop replaced by TKKGI and the C-terminal segment deleted) (from UniProt P74507 1-532) (enzyme)” returned an equilibrium dissociation constant (Kd) of 233 nM.

B1: strep-tagged iPGAM (2,3-bisphosphoglycerate-independent phosphoglycerate mutase, Slr1945) of Synechocystis sp. PCC 6803, wild type (enzyme)
chain: MAEAPIAPVVLVILDGWGYRPDTRANAIAQANTPIMDSLIAAYPNTLVNTSGKDVGLPKGQMGNSEVGHLNLGAGRVVPQELVRISDAIEDGTFFDNQALIEVCQRVRDRRGKLHLIGLCSDGGVHSHIDHLLGLIDLAKLQGISQLCIHAITDGRDTPTNEGAHFVQQIQAHLEKIGLGRIVSVSGRYYALDRDRRWDRVEKAYRVMTEDGVGDGRSAAQVIKDYYASDITDEFIPPTRIGAGAIASGDGVIFYNFRPDRARQLCYALVNPSFDGFPRERIQPLDFVTFTQYDPALPVVVAFEPQNLNNILGEIISRQGMKQFRTAETEKYPHVTYFFNGGLEQPFAGEDRELIQSPMVSTYDKAPQMSAKAVTDAVCRAMEKGIYSLVVVNYANPDMVGHTGKLKEAIQAIETVDLNLGRLLASAAKVGGTVLITADHGNAEYMSDESGNPWTAHTTNPVPFILVEGEGRKIPGHGGEVKLREGGKLADIAPTILDILQLPVPAEMTGKTLIDQPLVEIKANRTPVNLSR
Consider B1, for which the dissociation constant (Kd) in [9] amounted to 378 nM.

B2: iPGAM (Slr1945), strep-iPGAM, iPGAM-WT (Synechocystis sp. PCC 6803 substr. Kazusa) (protein)
chain: MAEAPIAPVVLVILDGWGYRPDTRANAIAQANTPIMDSLIAAYPNTLVNTSGKDVGLPKGQMGNSEVGHLNLGAGRVVPQELVRISDAIEDGTFFDNQALIEVCQRVRDRRGKLHLIGLCSDGGVHSHIDHLLGLIDLAKLQGISQLCIHAITDGRDTPTNEGAHFVQQIQAHLEKIGLGRIVSVSGRYYALDRDRRWDRVEKAYRVMTEDGVGDGRSAAQVIKDYYASDITDEFIPPTRIGAGAIASGDGVIFYNFRPDRARQLCYALVNPSFDGFPRERIQPLDFVTFTQYDPALPVVVAFEPQNLNNILGEIISRQGMKQFRTAETEKYPHVTYFFNGGLEQPFAGEDRELIQSPMVSTYDKAPQMSAKAVTDAVCRAMEKGIYSLVVVNYANPDMVGHTGKLKEAIQAIETVDLNLGRLLASAAKVGGTVLITADHGNAEYMSDESGNPWTAHTTNPVPFILVEGEGRKIPGHGGEVKLREGGKLADIAPTILDILQLPVPAEMTGKTLIDQPLVEIKANRTPVNLSR
notes: N-terminal strep-tag; expressed in E. coli Lemo21(DE3), Strep-Tactin purified; calculated 60 kDa; monomer by mass photometry
What is called Vmax is the rate approached at saturating substrate. A word on the kcat: it is the number of substrate molecules converted per active site and unit of time at saturation. A word on the kcat/Km: it is the turnover number divided by the Michaelis constant. B2: in [10], the Km was found to be 265 ± 13 µM, the Vmax worked out at 18.6 µmol/min/mg, the kcat amounted to 18.6 ± 0.3 s⁻¹ and the kcat/Km worked out at 70200 ± 3590 M⁻¹ s⁻¹.

B3: iPGAM (Slr1945), strep-iPGAM, iPGAM-WT (Synechocystis sp. PCC 6803 substr. Kazusa; DEL468-484/INS467TKKGI) (protein)
chain: MAEAPIAPVVLVILDGWGYRPDTRANAIAQANTPIMDSLIAAYPNTLVNTSGKDVGLPKGQMGNSEVGHLNLGAGRVVPQELVRISDAIEDGTFFDNQALIEVCQRVRDRRGKLHLIGLCSDGGVHSHIDHLLGLIDLAKLQGISQLCIHAITDGRDTPTNEGAHFVQQIQAHLEKIGLGRIVSVSGRYYALDRDRRWDRVEKAYRVMTEDGVGDGRSAAQVIKDYYASDITDEFIPPTRIGAGAIASGDGVIFYNFRPDRARQLCYALVNPSFDGFPRERIQPLDFVTFTQYDPALPVVVAFEPQNLNNILGEIISRQGMKQFRTAETEKYPHVTYFFNGGLEQPFAGEDRELIQSPMVSTYDKAPQMSAKAVTDAVCRAMEKGIYSLVVVNYANPDMVGHTGKLKEAIQAIETVDLNLGRLLASAAKVGGTVLITADHGNAEYMSDESGNPWTAHTTNPVPFILVTKKGIEGGKLADIAPTILDILQLPVPAEMTGKTLIDQPLVEIKANRTPVNLSR
notes: as for B2
Turning to B3, in data set [10], the Km came out at 1087 ± 141 µM, the Vmax came out at 6.86 µmol/min/mg, the kcat came to 6.7 ± 0.4 s⁻¹ and the kcat/Km was determined as 6190 ± 874 M⁻¹ s⁻¹.

The values are drawn from PMC12077085, “Structural elements of cyanobacterial co-factor-independent phosphoglycerate mutase that mediate regulation by PirC” (mBio, 2025).
